From article PMC6834639 (Nature Communications, 2019)
Read-outs that look alike come from different tables or passages of the source. Square brackets hold non-standard residues; d marks the D form. Ends that are not written are not given here.

Target: tetrameric transthyretin (TTR) (Homo sapiens, UniProt P02766)
Assay: In-solution kinetics analysis of TTR-Aβ interactions via OpenSPR
Format: binding
Details: for koff: dissociation rate constant
Experimental: One of the most common applications of SPR is the analysis and quantification of the interactions between proteins. SPR experiments were performed using a Nicoya Lifesciences OpenSPR system equipped with a COOH chip. Following the start-up procedure found in the OpenSPR™ manual, setup the OpenSPR™ instrument and load a COOH Sensor Chip. The COOH surface was activated following the instructions included in the Amine kit. The ligand was diluted to a concentration of 45 μg/mL into immobilization buffer (provided by Nicoya Lifesciences, pH 4.5) and 100 μL was injected at 20 μL/min for a 5-min interaction time. […] Immobilization was monitored via absorbance change in a standard solution of filtered buffer (PBS, pH 6.8, with 0.005% Tween 20) for 5 min at a flow rate of 50 μl/min. The surface was blocked with an injection of 100 μL of blocking buffer (provided by Nicoya Lifesciences, 1 M ethanolamine, pH 8.5). […] An association time of 150 s and a dislocation time of 400 s were used. The surface was regenerated with an injection of regeneration buffer (HCl 10 mM, pH 2.0) at a speed of 150 μL/min between each analyte injection. The chip was washed in 10 mM HCl (pH 2.0) to remove impurities. Data were collected at a rate of 5 Hz and was single referenced with blank injections. Data were fit to a 1:1 interaction model using the analysis software TraceDrawer.

[1] = OpenSPR, association rate constant, immobilized TTR, PBS pH 6.8, 0.005% Tween 20, 1:1 model, average of three ± SD
[2] = OpenSPR, immobilized TTR, PBS pH 6.8, 0.005% Tween 20, 1:1 model, average of three ± SD
[3] = OpenSPR, Replicate #1, read-out: ka
[4] = OpenSPR, Replicate #2, read-out: ka
[5] = OpenSPR, Replicate #3, read-out: ka
[6] = pH 6.8, OpenSPR, association rate constant, immobilized TTR, PBS pH 6.8, 0.005% Tween 20, 1:1 model, average of three ± SD, read-out: Ka (1/(M*s)) × 10^−2

| Kd (OpenSPR, Replicate #1) | ka (OpenSPR, Replicate #1) | kd (OpenSPR, Replicate #1) | Kd (OpenSPR, Replicate #2) | ka (OpenSPR, Replicate #2) | kd (OpenSPR, Replicate #2) | Kd (OpenSPR, Replicate #3) | ka (OpenSPR, Replicate #3) | kd (OpenSPR, Replicate #3) | Ka (1/(M*s)) × 10^−2 [1] | koff [2] | Compound | kon [3] | kon [4] | kon [5] | kon [6] | binding dissociation rate constant higher than the WT Aβ (17–36) fragment (OpenSPR, tetrameric TTR, relative to WT Aβ (17–36)) |
| --- | --- | --- | --- | --- | --- | --- | --- | --- | --- | --- | --- | --- | --- | --- | --- | --- |
| 116 µM | 1720 M⁻¹ s⁻¹ | 0.199 s⁻¹ | 199 µM | 489 M⁻¹ s⁻¹ | 0.0975 s⁻¹ | 133 µM | 753 M⁻¹ s⁻¹ | 0.1 s⁻¹ | 9.9 ± 3.2 1/(M*s) × 10^−2 | 13.2 ± 2.9 1/s × 10^2 | dD Aβ (17–36): Aβ (17–36) with D-isomerized Asp (LVFFAE[dD]VGSNKGAIIGLMV) | – | – | – | – | – |
| – | – | – | – | – | – | – | – | – | – | – | CC[C@H](C)[C@H](NC(=O)[C@H](C)NC(=O)CNC(=O)[C@H](CCCCN)NC(=O)[C@H](CC(N)=O)NC(=O)[C@H](CO)NC(=O)CNC(=O)[C@@H](NC(=O)[C@H](CC(=O)O)NC(=O)[C@H](CCC(=O)O)NC(=O)[C@H](C)NC(=O)[C@H](Cc1ccccc1)NC(=O)[C@H](Cc1ccccc1)NC(=O)[C@@H](NC(=O)[C@@H](N)CC(C)C)C(C)C)C(C)C)C(=O)N[C@H](C(=O)NCC(=O)N[C@@H](CC(C)C)C(=O)N[C@@H](CCSC)C(=O)N[C@H](C(=O)O)C(C)C)[C@@H](C)CC [WT Aβ (17–36)] | 886 M⁻¹ s⁻¹ | 586 M⁻¹ s⁻¹ | 603 M⁻¹ s⁻¹ | 690 ± 80 M⁻¹ s⁻¹ | – |
| – | – | – | – | – | – | – | – | – | – | – | CC[C@H](C)[C@H](NC(=O)[C@H](C)NC(=O)CNC(=O)[C@H](CCCCN)NC(=O)[C@H](CC(N)=O)NC(=O)[C@@H](CO)NC(=O)CNC(=O)[C@@H](NC(=O)[C@@H](CC(=O)O)NC(=O)[C@H](CCC(=O)O)NC(=O)[C@H](C)NC(=O)[C@H](Cc1ccccc1)NC(=O)[C@H](Cc1ccccc1)NC(=O)[C@@H](NC(=O)[C@@H](N)CC(C)C)C(C)C)C(C)C)C(=O)N[C@H](C(=O)NCC(=O)N[C@@H](CC(C)C)C(=O)N[C@@H](CCSC)C(=O)N[C@H](C(=O)O)C(C)C)[C@@H](C)CC [dDdS Aβ (17–36)] | 3490 M⁻¹ s⁻¹ | 818 M⁻¹ s⁻¹ | 1470 M⁻¹ s⁻¹ | 1930 ± 700 M⁻¹ s⁻¹ | ~ 13 folds |
| 86.9 µM | 1660 M⁻¹ s⁻¹ | 0.144 s⁻¹ | 220 µM | 657 M⁻¹ s⁻¹ | 0.144 s⁻¹ | 47.3 µM | 1150 M⁻¹ s⁻¹ | 0.0546 s⁻¹ | 11.6 ± 2.5 1/(M*s) × 10^−2 | 11.4 ± 2.6 1/s × 10^2 | dS Aβ (17–36): Aβ (17–36) with D-isomerized Ser (LVFFAEDVG[dS]NKGAIIGLMV) | – | – | – | – | – |
